According to PMC3511393, “Identification and Characterisation of the RalA-ERp57 Interaction: Evidence for GDI Activity of ERp57” (PLoS ONE, 2012):

Target: T1, 6xHis-ERp57 (human, UniProt P30101 24-505)
T1 construct: ERp57, human cDNA without the region encoding the N-terminal signal peptide (amino acids 1-23); also called wt ERp57; wild-type 6xHis-ERp57; source: E. coli, purified (Ni-NTA); not shown: 6xHis, N-terminal, kept
T1 sequence (looked up): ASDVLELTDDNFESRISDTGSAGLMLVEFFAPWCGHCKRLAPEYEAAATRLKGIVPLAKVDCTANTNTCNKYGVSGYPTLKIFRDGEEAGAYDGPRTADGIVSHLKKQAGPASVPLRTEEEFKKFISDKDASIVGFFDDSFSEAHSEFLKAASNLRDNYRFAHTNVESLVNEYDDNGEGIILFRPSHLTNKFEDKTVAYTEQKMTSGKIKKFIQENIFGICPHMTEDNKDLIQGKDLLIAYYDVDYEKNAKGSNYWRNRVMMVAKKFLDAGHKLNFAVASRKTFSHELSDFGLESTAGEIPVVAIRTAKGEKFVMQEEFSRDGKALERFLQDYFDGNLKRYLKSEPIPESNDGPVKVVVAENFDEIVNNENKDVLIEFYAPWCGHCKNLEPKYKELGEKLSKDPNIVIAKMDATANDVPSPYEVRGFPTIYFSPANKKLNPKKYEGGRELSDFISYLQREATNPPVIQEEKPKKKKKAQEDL
Assay: pull-down; GST-RalA loaded with GDP as bait; purified 6xHis-ERp57 or mutants; Western blot with anti-6xHis antibody; with or without 1 mM DTT
Settings: both partners purified

- binding result: binds
B1: GST-RalA (natural protein, simian, UniProt P63320 1-206, looked up)
chain: MAANKPKGQNSLALHKVIMVGSGGVGKSALTLQFMYDEFVEDYEPTKADSYRKKVVLDGEEVQIDILDTAGQEDYAAIRDNYFRSGEGFLCVFSITEMESFAATADFREQILRVKEDENVPFLLVGNKSDLEDKRQVSVEEAKNRADQWNVNYVETSAKTRANVDKVFFDLMREIRARKMEDSKEKNGKKKRKSLAKRIRERCCIL
notes: RalA, simian cDNA (pGEX-2T-RalA from Yoshito Kaziro); loaded with GDP or GTP immediately before use; Nucleotide state (GDP or GTP) is told by the assay; also called RalA-GDP; RalA-GTP; source: when necessary eluted with reduced GSH and dialysed; not shown: GST, N-terminal, kept
